Target: HLA-A*0201 molecule (human)
Assay: T2 cells loaded with 100 µM peptide, Brefeldin A, flow cytometry with BB7.2 at 0-8 h
Details: remark: other sources report otherwise

YEFLWGPRA [p262 (…)]
DC50 (time for loss of 50% of the complexes): < 2 h
